In patent publication US20050153896A1 (published 2005):
Blank lines part the entries; values can stand above or below the binder they belong to. Ends that are not written are not given here.

How the values were obtained:
[1] = biological target: T1, Aβ 1-40 (beta-amyloid protein 1-40); assay: solid phase binding immunoassay; ~55 kDa laminin fragment immobilized on microtiter plates, increasing concentrations of Aβ (1-40)
T1 construct: Bought from Bachem; Residues 1-40 are counted on Aβ itself; also called Alzheimer's Aβ

[2] = biological target: Aβ (beta-amyloid protein, length not stated at the place); assay: cell-based or functional assay
[3] = biological target: Aβ 1-42 (beta-amyloid protein 1-42), pre-formed fibrils; assay: cell-based or functional assay

Kd [1]: 2 nM
B1: ~55 kDa laminin fragment obtained by elastase digestion of EHS mouse laminin (other, UniProt P19137 2690-3083, looked up)
chain: HREHGELPPEPPTLPQPELCAVDTAPGYVAGAHQFGLSQNSHLVLPLNQSDVRKRLQVQLSIRTFASSGLIYYVAHQNQMDYATLQLQEGRLHFMFDLGKGRTKVSHPALLSDGKWHTVKTEYIKRKAFMTVDGQESPSVTVVGNATTLDVERKLYLGGLPSHYRARNIGTITHSIPACIGEIMVNGQQLDKDRPLSASAVDRCYVVAQEGTFFEGSGYAALVKEGYKVRLDLNITLEFRTTSKNGVLLGISSAKVDAIGLEIVDGKVLFHVNNGAGRITATYQPRAARALCDGKWHTLQAHKSKHRIVLTVDGNSVRAESPHTHSTSADTNDPIYVGGYPAHIKQNCLSSRASFRGCVRNLRLSRGSQVQSLDLSRAFDLQGVFPHSCPGPEP
notes: domain: C-terminal globular domains of the laminin A1 chain; also called ~55 kilodalton laminin fragment; ~55 kDa fragment of laminin

inhibition of Aβ fibril formation, Aβ:peptide molar ratio 1:1 [2]: 50%
disruption of pre-formed Aβ 1-42 fibrils (Thioflavin T fluorometry), Aβ:peptide molar ratio 1:10 [3]: 81%
Binder: RKRLQVQLSIRT-NH2 [AG73 peptide (laminin alpha-1 chain globular domain-derived peptide)]
